First the molecules themselves.
B1: TPR t1 (parent)
chain: GACCAAUCUGCCCUCAGAGCUCGAGAACAUCUUCGGAUGCAGAGGAGGCAGGCUUCGGUGGCGCGAUAGCGCCAACGUCCUCAACCUCCAAUGCAUCCCACCACAUGAUGAUGCCUGAAGAGCCUUGGUUUUUUG

The source of these data is the RNAGym collection of RNA variant scans (doi:10.1073/pnas.2313332121).

The variants in this series derive from B1. Nature of the series: polymerase ribozyme fitness, log enrichment relative to wild type (log ratio); higher = more active; in vitro selection for triplet polymerase activity. A digest of the protocol: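 For each subunit of a heterodimeric triplet polymerase ribozyme, a mutant library was built by PCR and transcribed, then taken through a single in vitro selection round in triplicate. Selection involved annealing to a biotinylated primer, the partner subunit and triplets, incubation frozen at −7 °C, gel excision of extended constructs, capture on streptavidin beads and RT-PCR. Genotypes were retained after Illumina sequencing of inputs and outputs only with ≥10 input reads and ≥1 read in each output. Fitness is defined as the logarithm of a genotype's enrichment relative to wild-type enrichment, using inverse-variance-weighted averages across replicates, with the logarithm taken to base 2.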
Regarding G69U A111U, the “polymerase ribozyme fitness (log ratio)” value is -1.16.
On to C4G U87A, for which the “polymerase ribozyme fitness (log ratio)” value is -2.92.
Next, A37G A50C G57A G117C: -6.92; C53A C82U C88G A118U: -0.344.
Next, C3U G51C G58A G63U C115G: -5.47.
For C8A C115U the value was -0.595.
On to A26G C49U G63A A84C, for which the “polymerase ribozyme fitness (log ratio)” value is -4.24.
For A18G A24G U55A, the “polymerase ribozyme fitness (log ratio)” value was -5.14.
Regarding G36C C70G G110C U129G, the “polymerase ribozyme fitness (log ratio)” value was -5.33.
On to A24G A41G C88U U92A U112A U131C, for which the “polymerase ribozyme fitness (log ratio)” value was -3.58.
For G69C A75G the value was -2.54.
Turning to A2G A50C A75G G113U, the “polymerase ribozyme fitness (log ratio)” value was -3.77.
For G52C U116C the value was -1.72; for G42C G44A A50C C82U C85U, -3.31.
Next, G19U C64U: -2.87.
Turning to G48A G52A C101G, the “polymerase ribozyme fitness (log ratio)” value is -2.71.
Turning to C11U A24U G65C A103C A108U A111U, the “polymerase ribozyme fitness (log ratio)” value is -6.52.
With C13A G61A, the “polymerase ribozyme fitness (log ratio)” value is -1.81.
As to C85G A108G, the “polymerase ribozyme fitness (log ratio)” value is -3.15.
Take C31U G63U G107A: the “polymerase ribozyme fitness (log ratio)” value was -2.29.
With G25U C56G U81G A121G C124U, the “polymerase ribozyme fitness (log ratio)” value was -5.96.
As for A90G U92G C123A, the “polymerase ribozyme fitness (log ratio)” value was -1.06.
For G39A C53U G61C A84U G127C the value was -2.2; for C8G G58A C70U U96A, -1.13.
Take C20G A46U C114U: the “polymerase ribozyme fitness (log ratio)” value is -3.16.
Next, C40U U109A G120C: -5.74.
Turning to G10U A27G U106C C123A, the “polymerase ribozyme fitness (log ratio)” value came out at 0.556.
As to G71A C82U C101A, the “polymerase ribozyme fitness (log ratio)” value is -0.823.
For the variant C31G G35C A43G G110C, the “polymerase ribozyme fitness (log ratio)” value was -7.68.
In the case of U7G G63U C88U G93C, the “polymerase ribozyme fitness (log ratio)” value is -2.75.
Next, C56U G107U: -4.6.
For C4G C64U, the “polymerase ribozyme fitness (log ratio)” value is -2.5.
For G10U G69U, the “polymerase ribozyme fitness (log ratio)” value was 0.293.
Regarding C4G U9G C13A C82U A111G, the “polymerase ribozyme fitness (log ratio)” value is -2.04.
For C20A C34A A41C G69U C73U the value was -5.14.
For C3U G69C C88G U96G the value was -2.75; for C11U G44A, -1.49.
As for C115G, the “polymerase ribozyme fitness (log ratio)” value is -1.59.
For A6U C53G the value was -0.289; for A43C A46U C101G C123U, -4.18; for G58A C101G, -1.94.
Consider C49G A90U G117A, for which the “polymerase ribozyme fitness (log ratio)” value was -3.8.
Next, C70U U109A: -4.47; C70G A75C C115A: -1.54; G39U G42C C94U U106A U112A: -0.723.
In the case of G117U C124A, the “polymerase ribozyme fitness (log ratio)” value is -0.212.
For G61A C88U C89A, the “polymerase ribozyme fitness (log ratio)” value was -1.82.
With U126C, the “polymerase ribozyme fitness (log ratio)” value was -0.485.
For the variant A18C A27G A111U G128C, the “polymerase ribozyme fitness (log ratio)” value was -6.38.
For C15A C101G C124G, the “polymerase ribozyme fitness (log ratio)” value amounted to 0.0121.
With G71C A103U C115A G117A, the “polymerase ribozyme fitness (log ratio)” value is -5.57.
As to G35C C114U, the “polymerase ribozyme fitness (log ratio)” value was -5.79.
As to A2G G44C C62A C97U C115U G135A, the “polymerase ribozyme fitness (log ratio)” value was -5.32.
Take C34G U67C A103G G107C U116C C123G: the “polymerase ribozyme fitness (log ratio)” value is -7.28.
In the case of C12U G44U C72G G127A G128C, the “polymerase ribozyme fitness (log ratio)” value is -4.51.
For G36A C72G G110U, the “polymerase ribozyme fitness (log ratio)” value was -4.37.
Next, C15U C62U U112G: -0.275; C12U U21G C62G A74C U78A: -3.33; G63U C72U C115A: -1.23.
On to C11A G69U G93A G128U, for which the “polymerase ribozyme fitness (log ratio)” value is -3.27.
On to C8U C104U, for which the “polymerase ribozyme fitness (log ratio)” value is 0.275.
With C8A A74C G93C U116A, the “polymerase ribozyme fitness (log ratio)” value is -2.46.
For the variant G93A U132A G135U, the “polymerase ribozyme fitness (log ratio)” value was -0.722.
On to C12A A24G A41C A43C A46G C53G, for which the “polymerase ribozyme fitness (log ratio)” value is -4.67.
With G57A G63U G122A, the “polymerase ribozyme fitness (log ratio)” value is -2.81.
On to U9G G57A U112A C123U G128A, for which the “polymerase ribozyme fitness (log ratio)” value is -3.19.
As for C12G G93U U112A, the “polymerase ribozyme fitness (log ratio)” value was 0.281.
As to G35A C102U, the “polymerase ribozyme fitness (log ratio)” value was -5.08.
Regarding C73A C104A U116G C124A, the “polymerase ribozyme fitness (log ratio)” value is -1.19.
Next, G52A U87C G117C: -3.1; U9A C56A A66U: -0.548.
Consider C53G G71U, for which the “polymerase ribozyme fitness (log ratio)” value was -0.129.
As to G35C C72U C114U, the “polymerase ribozyme fitness (log ratio)” value is -6.13.
For the variant U59C A118C, the “polymerase ribozyme fitness (log ratio)” value was -2.95.
Next, C62A U132C: -0.866.
In the case of A29C G36U G69C G77A C97U A105U U106A, the “polymerase ribozyme fitness (log ratio)” value was -5.4.
Regarding A41U C94U A111G G128U, the “polymerase ribozyme fitness (log ratio)” value was -4.31.
For C53U G61C the value was 0.349; for C11G G42U A84U, -1.53.
For G10U C53A C56A G61U A90C the value was -5.6; for C8A C64U, 0.575.
On to G71C A84U, for which the “polymerase ribozyme fitness (log ratio)” value is -2.77.
Regarding C3U C80G, the “polymerase ribozyme fitness (log ratio)” value is -5.98.
On to U21G G42U U112A, for which the “polymerase ribozyme fitness (log ratio)” value was determined as 0.673.
